Experimental data from patent publication US10087225B2, “Formulation of MK2 inhibitor peptides” (MOERAE MATRIX, INC., priority 2015, dated 2018).

Legend:
Test in all cases: Kinase Profiling Assay
Assay type in all cases: biochemical
Conditions in all cases: for % activity: 100 μM
Ax1(h) = Ax1(h) (Homo sapiens, UniProt P30530)
Rsk4(h) = Rsk4(h) (Homo sapiens, UniProt Q9UK32)
EphA8(h) = target: T1, EphA8(h) (Homo sapiens, UniProt P29322)
T1 sequence (P29322 28-1005): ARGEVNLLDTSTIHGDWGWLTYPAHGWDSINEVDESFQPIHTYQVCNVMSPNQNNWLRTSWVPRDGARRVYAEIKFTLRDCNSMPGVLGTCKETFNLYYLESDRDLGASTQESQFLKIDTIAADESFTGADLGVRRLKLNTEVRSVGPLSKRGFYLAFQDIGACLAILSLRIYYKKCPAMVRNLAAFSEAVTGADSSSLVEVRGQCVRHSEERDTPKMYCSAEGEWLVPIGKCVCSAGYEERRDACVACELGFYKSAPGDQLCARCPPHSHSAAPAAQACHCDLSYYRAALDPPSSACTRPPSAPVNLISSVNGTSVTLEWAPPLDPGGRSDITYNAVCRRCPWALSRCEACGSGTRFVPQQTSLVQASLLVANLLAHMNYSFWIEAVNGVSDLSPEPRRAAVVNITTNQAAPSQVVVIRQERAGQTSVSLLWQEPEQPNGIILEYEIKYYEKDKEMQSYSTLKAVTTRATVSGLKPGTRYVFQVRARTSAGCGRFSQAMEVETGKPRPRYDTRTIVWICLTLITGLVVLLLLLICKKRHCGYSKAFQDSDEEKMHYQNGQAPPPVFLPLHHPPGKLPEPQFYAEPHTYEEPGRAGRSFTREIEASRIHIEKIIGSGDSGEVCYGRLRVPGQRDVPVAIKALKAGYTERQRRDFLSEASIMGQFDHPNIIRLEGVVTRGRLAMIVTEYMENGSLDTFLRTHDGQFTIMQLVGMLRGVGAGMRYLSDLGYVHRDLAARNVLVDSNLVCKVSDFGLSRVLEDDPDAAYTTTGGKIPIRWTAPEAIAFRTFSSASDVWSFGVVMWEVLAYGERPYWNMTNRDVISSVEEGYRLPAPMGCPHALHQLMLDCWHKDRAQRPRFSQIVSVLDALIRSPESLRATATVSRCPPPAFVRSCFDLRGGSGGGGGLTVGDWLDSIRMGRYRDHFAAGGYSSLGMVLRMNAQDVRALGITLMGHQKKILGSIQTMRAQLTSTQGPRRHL

MSSK1(h) = MSSK1(h) (Homo sapiens, UniProt Q9UPE1)
PAK4(h) = PAK4(h) (Homo sapiens, UniProt O96013)
EphB1(h) = target: T2, EphB1(h) (Homo sapiens, UniProt P54762)
T2 sequence (P54762 18-984): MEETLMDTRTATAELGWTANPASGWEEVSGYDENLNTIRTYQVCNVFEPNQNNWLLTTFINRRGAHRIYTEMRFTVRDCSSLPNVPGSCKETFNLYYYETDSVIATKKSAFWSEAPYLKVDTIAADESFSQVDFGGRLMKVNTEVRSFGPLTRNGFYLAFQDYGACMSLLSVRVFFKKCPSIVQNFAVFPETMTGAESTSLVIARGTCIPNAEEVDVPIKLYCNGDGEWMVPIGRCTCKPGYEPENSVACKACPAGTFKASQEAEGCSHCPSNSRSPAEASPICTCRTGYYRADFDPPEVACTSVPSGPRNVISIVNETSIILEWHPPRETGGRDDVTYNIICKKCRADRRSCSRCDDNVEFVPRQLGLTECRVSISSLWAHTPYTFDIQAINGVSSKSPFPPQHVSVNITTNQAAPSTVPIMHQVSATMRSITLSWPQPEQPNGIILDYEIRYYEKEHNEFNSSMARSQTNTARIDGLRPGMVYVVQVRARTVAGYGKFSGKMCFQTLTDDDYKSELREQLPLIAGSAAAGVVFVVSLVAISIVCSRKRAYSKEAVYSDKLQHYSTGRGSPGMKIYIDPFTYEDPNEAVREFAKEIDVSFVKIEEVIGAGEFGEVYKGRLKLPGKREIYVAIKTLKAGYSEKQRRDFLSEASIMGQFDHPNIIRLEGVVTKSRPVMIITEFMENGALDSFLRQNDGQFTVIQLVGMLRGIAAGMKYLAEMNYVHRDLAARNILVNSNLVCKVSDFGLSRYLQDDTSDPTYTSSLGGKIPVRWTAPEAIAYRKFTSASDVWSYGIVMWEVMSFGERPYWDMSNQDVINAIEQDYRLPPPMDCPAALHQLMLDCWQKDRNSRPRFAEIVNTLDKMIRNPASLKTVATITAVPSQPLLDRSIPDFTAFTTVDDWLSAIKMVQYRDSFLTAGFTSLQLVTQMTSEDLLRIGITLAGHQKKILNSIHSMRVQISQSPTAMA

ARK5(h) = target: T3, ARK5(h) (Homo sapiens, UniProt O60285)
T3 sequence (O60285 1-661): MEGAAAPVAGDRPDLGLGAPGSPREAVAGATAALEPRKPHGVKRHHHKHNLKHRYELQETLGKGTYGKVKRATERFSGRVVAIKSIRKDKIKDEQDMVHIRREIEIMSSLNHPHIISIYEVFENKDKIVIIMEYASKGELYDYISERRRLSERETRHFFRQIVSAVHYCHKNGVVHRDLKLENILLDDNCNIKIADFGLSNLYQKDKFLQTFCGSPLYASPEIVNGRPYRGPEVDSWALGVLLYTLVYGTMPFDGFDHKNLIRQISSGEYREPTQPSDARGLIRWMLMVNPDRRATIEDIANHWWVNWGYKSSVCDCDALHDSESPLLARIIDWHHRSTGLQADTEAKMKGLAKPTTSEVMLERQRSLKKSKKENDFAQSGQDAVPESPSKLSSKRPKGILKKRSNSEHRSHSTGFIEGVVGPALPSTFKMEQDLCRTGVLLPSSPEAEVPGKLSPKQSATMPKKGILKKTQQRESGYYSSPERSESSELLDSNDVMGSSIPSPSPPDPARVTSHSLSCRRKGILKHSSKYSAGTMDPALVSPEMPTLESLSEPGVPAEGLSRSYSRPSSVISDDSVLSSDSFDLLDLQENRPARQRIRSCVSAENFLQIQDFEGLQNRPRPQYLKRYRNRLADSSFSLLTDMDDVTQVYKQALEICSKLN

SRPK1(h) = SRPK1(h) (Homo sapiens, UniProt Q96SB4)
Sequence of SRPK1(h) (Q96SB4 whole entry): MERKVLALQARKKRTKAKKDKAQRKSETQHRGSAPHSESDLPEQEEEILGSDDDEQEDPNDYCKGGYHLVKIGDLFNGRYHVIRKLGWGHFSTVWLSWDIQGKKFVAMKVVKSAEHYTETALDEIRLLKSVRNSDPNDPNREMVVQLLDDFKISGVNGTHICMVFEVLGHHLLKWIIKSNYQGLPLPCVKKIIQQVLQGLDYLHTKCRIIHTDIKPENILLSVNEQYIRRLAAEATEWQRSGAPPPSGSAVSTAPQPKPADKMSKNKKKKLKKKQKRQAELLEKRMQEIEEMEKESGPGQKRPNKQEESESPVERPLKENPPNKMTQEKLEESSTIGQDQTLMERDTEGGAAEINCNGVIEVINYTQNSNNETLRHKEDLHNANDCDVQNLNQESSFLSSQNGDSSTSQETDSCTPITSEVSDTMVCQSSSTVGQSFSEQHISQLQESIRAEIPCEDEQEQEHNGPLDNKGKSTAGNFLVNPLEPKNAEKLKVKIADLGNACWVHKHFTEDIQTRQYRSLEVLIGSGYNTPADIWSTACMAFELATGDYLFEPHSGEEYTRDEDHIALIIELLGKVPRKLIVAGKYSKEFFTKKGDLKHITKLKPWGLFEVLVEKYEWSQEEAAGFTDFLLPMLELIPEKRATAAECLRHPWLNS

Sequence of Rsk4(h) (Q9UK32 whole entry): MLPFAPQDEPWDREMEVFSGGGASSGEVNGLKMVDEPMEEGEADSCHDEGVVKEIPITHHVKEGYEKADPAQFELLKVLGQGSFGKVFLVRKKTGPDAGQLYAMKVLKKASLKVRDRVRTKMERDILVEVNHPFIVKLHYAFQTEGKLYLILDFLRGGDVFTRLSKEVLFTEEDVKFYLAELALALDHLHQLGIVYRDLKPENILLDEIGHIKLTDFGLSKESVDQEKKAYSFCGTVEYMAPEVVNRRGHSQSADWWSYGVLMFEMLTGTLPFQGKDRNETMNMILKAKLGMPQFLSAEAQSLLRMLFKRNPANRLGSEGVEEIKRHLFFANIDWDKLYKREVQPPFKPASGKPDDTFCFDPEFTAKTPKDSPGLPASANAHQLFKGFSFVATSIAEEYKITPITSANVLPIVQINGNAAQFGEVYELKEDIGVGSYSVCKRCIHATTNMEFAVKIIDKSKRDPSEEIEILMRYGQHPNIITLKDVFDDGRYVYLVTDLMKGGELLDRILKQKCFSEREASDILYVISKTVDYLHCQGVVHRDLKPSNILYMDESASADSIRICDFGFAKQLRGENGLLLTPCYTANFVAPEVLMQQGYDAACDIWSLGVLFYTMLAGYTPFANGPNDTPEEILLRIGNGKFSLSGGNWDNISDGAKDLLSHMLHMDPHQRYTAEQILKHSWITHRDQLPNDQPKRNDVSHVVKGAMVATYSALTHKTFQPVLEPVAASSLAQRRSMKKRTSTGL
Sequence of PAK4(h) (O96013 whole entry): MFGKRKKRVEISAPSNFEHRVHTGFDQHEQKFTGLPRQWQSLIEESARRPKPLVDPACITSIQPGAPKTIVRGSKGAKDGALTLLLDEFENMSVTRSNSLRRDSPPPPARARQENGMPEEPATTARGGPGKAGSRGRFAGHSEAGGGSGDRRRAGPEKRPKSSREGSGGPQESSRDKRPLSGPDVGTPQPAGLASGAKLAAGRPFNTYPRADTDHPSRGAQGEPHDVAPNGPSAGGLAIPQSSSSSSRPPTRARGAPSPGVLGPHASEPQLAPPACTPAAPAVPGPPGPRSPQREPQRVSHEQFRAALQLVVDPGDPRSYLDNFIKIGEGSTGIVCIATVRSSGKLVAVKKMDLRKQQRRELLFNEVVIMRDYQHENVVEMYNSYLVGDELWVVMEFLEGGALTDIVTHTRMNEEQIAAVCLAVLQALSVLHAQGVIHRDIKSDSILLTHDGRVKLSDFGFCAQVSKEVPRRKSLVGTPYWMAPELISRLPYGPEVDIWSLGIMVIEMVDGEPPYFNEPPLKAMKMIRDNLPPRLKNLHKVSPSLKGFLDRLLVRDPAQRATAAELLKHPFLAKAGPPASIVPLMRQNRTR
Sequence of MSSK1(h) (Q9UPE1 whole entry): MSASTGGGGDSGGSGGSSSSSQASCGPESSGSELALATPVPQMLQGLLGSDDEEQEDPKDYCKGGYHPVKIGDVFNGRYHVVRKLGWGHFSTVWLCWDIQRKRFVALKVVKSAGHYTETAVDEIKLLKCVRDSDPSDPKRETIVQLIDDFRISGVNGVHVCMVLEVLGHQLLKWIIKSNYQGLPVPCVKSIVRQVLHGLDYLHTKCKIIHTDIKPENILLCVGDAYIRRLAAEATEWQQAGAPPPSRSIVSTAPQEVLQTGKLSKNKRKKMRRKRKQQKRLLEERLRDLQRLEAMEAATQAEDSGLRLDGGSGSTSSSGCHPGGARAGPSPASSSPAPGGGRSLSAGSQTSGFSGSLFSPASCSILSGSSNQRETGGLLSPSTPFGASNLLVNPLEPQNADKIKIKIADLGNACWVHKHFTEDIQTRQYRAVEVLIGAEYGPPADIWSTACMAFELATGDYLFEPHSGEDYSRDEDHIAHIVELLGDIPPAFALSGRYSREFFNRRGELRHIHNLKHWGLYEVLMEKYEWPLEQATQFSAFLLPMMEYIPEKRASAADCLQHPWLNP

Substance	activity at 100 µM (Ax1(h)) [%]	activity at 100 µM (Rsk4(h)) [%]	activity at 100 µM (EphA8(h)) [%]	activity at 100 µM (MSSK1(h)) [%]	activity at 100 µM (PAK4(h)) [%]	activity at 100 µM (EphB1(h)) [%]	activity at 100 µM (ARK5(h)) [%]	activity at 100 µM (SRPK1(h)) [%]	% activity (Ax1(h)) [%]	% activity (Rsk4(h)) [%]	% activity (EphA8(h)) [%]	% activity (MSSK1(h)) [%]	% activity (PAK4(h)) [%]	% activity (EphB1(h)) [%]	% activity (ARK5(h)) [%]	% activity (SRPK1(h)) [%]
H-YARAAARQARAKALARQLGVAA-OH [MMI-0100]	81	99	181	82	92	99	108	69								
HRRIKAWLKKIKALARQLGVAA (Mammalian) [MMI-0500]									12	29	337	22	86	37	20	80
YARAAARQARAKALNRQLGVA (Mammalian) [MMI-0200]									99	125	133	100	98	95	93	93
